Reference: patent US20150246136A1 (Bayer, published 2015)

T1: C4.4a (Homo sapiens, UniProt O95274 31-326)
T1 sequence (looked up): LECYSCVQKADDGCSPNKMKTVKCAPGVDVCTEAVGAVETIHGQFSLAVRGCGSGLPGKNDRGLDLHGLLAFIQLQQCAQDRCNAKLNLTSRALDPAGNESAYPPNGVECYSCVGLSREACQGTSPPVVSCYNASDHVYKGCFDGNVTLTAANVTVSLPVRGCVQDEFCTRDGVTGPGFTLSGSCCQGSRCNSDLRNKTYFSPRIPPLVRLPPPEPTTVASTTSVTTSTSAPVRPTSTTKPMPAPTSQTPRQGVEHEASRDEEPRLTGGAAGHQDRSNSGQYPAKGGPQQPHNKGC

B1: Example 211 (antibody, human IgG1, lambda, V domains shown)
VH: EVQLLESGGGLVQPGGSLRLSCAASGFTFSSAWMSWVRQAPGKGLEWVSYISSSGSTIYYADSVKGRFTISRDNSKNTLYLQMNSLRAEDTAVYYCAREGLWAFDYWGQGTLVTVSS
VL: QSVLTQPPSVSGAPGQRVTISCTGSSSNIGAGYVVHWYQQLPGTAPKLLIYDNNKRPSGVPDRFSGSKSGTSASLAISGLRSEDEADYYCAAYDDSLSGPVFGGGTKLTVLG
modifications: linker-toxophore on cysteine S
B2: Example 214 (antibody, human IgG1, lambda, V domains shown)
VH: B1 VH
VL: B1 VL
modifications: linker-toxophore on cysteine S
B3: Example 215 (antibody, human IgG1, lambda, V domains shown)
VH: B1 VH
VL: B1 VL
modifications: linker-toxophore on cysteine S
B4: Example 217 (antibody, human IgG1, lambda, V domains shown)
VH: EVQLLESGGGLVQPGGSLRLSCAASGFTFSDYQMTWIRQTPGKGLEWVSGISWNGGSTHYADSVKGRFTISRDNSKNTLYLQMNSLRAEDTAVYYCAKGDYLVYSSYYFKSWGQGTLVTVSS
VL: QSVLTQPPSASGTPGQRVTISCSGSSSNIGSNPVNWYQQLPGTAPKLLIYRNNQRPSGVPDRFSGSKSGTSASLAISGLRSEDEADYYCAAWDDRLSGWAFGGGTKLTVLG
modifications: linker-toxophore on cysteine S
B5: Example 301 (antibody, human IgG1, kappa, V domains shown)
VH: QVELVESGGGLVQPGGSLRLSCAASGFTFSSYGMSWVRQAPGKGLEWVSGISSLGSTTYYADSVKGRFTISRDNSKNTLYLQMNSLRAEDTAVYYCARTGSPGTFMHGDHWGQGTLVTVSS
VL: DIQMTQSPSSLSASVGDRVTITCRASQDINNYLSWYQQKPGKAPKLLIYGASNLQSGVPSRFSGSGSGTDFTLTISSLQPEDFAVYYCQQYYGRPTTFGQGTKVEIKR
modifications: linker-toxophore on cysteine S
B6: Example 302 (antibody, human IgG1, kappa, V domains shown)
VH: B5 VH
VL: B5 VL
modifications: linker-toxophore on cysteine S
B7: Example 303 (antibody, human IgG1, kappa, V domains shown)
VH: B5 VH
VL: B5 VL
modifications: linker-toxophore on lysine NH
B8: Example 304 (antibody, human IgG1, kappa, V domains shown)
VH: B5 VH
VL: B5 VL
modifications: linker-toxophore on cysteine S
B9: Example 305 (antibody, human IgG1, kappa, V domains shown)
VH: B5 VH
VL: B5 VL
modifications: linker-toxophore on cysteine S
B10: Example 306 (antibody, human IgG1, kappa, V domains shown)
VH: B5 VH
VL: B5 VL
modifications: linker-toxophore on lysine NH

Target: T1, C4.4a
Assay: cell-based or functional assay

Point of comparison: B3, “IC50 (nM) A549: C4.4a” value 0.046 nM. Against it:
- B1 — 1.7-fold higher, 0.076 nM
- B2 — within 1.5-fold, 0.04 nM
- B4 — within 1.5-fold, 0.053 nM

Target: T2, Carboanhydrase IX (Homo sapiens, UniProt Q16790 38-459)
Assay: cell-based or functional assay

Point of comparison: B9, “EC50 (nM) HT29” value 0.9 nM. Against it:
- B5 — higher, > 30 nM
- B6 — higher, > 30 nM
- B7 — 2.4-fold higher, 2.2 nM
- B8 — 18-fold lower, 0.05 nM
- B10 — 73-fold higher, 66 nM

Point of comparison: B9, “EC50 (nM) SNU-5” value 2.2 nM. Against it:
- B7 — within 1.5-fold, 3.3 nM
- B8 — 3.7-fold lower, 0.6 nM
- B10 — 15-fold higher, 33 nM

Target: T2, Carboanhydrase IX
Assay: cell-based or functional assay
Remark: another data set of the same source

Point of comparison: B10, “MIAPaCa 2/CA9+ IC50” value 21 nM. Against it:
- B5 — within 1.5-fold, 22 nM
- B6 — 5.4-fold lower, 3.9 nM
- B7 — 2300-fold lower, 0.009 nM
- B8 — 1100-fold lower, 0.019 nM
- B9 — 8.1-fold lower, 2.6 nM
